Data as given in PMC11532494 (Nature Communications, 2024).
Several values for one entry are separate records, joined by “and”; a condition that tells them apart may be missing. Equal values may be shown once. Read-outs that look alike come from different tables or passages of the source. No end group written: not given here. *: point of attachment. AMC = Cc1cc(=O)oc2cc(N*)ccc12

Experiments:
[1] = molecular target: LpApaH (3) (Legionella pneumophila, UniProt A0A2S6EWV0); assay type: biochemical
[2] = molecular target: KpHdaH (1b) (Klebsiella pneumoniae, UniProt A0A377Z5F6); assay type: biochemical
[3] = test system: Controls; assay type: biochemical
[4] = test system: Controls; assay type: biochemical; remark: listed apart in the source
[5] = molecular target: LcApaH (3) (Legionella cherrii, UniProt A0A0W0SGS1); assay type: biochemical
[6] = test system: VcHdaH (5b); assay type: biochemical, Vibrio cholerae
[7] = molecular target: T1, BsAcuC (2c) (Bacillus subtilis, UniProt P39067); assay: Substrate screening assay (acyl-peptide-AMC); assay type: biochemical
T1 construct: made in house; host or cells: E. coli BL21 (DE3)
T1 sequence (P39067 1-387): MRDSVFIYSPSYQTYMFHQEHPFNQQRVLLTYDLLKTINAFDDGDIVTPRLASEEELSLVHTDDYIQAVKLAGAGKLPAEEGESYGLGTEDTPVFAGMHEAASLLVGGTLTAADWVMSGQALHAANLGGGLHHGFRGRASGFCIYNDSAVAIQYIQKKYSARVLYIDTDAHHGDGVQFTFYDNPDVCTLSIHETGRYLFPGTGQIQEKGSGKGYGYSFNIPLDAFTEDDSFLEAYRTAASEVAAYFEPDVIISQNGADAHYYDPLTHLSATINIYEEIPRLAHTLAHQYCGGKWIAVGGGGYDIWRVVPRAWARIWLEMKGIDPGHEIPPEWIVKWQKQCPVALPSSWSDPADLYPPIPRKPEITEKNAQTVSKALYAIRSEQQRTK
Description: (§1) Experiments with SIRT2 and SIRT5 were supplemented with NAD^+ (500 µM). Thereafter, a solution of trypsin (25 µL, 5.0 mg/mL; final concentration of 2.5 mg/mL) was added, and the development of the assay was allowed to proceed for 90 min at room temperature before fluorescence analysis. […] To this end, a single category is given to all conversions >48% on the heatmap. […] For the H4-derived peptide LGKbio no positive control was available.

[8] = molecular target: PsApaH (4) (Pseudomonas sp. M30-35, UniProt A0A1Y0KY79); assay type: biochemical
Description: as §1

[9] = test system: VsHdaH (1b); assay type: biochemical, Vibrio sp.
[10] = molecular target: RwDmhA (1b) (Rhizorhabdus wittichii, UniProt A0A067XIQ6); assay type: biochemical
[11] = test system: RsPrpH (1b); assay: Substrate screening assay (acyl-peptide-AMC); assay type: biochemical, Rhizorhabdus sp.
[12] = substrate screening, mean of two measurements
[13] = substrate screening, measurement 1 of two
[14] = substrate screening, measurement 2 of two
[15] = two measurements, single values

QPKKoct (QPKK-{AMC}; not fully specified (residue 4); printed as QPKKoct; also: octanoyl-lysine (which Lys not given here); UniProt P04637 317-320, looked up, fragment)
RFU means, LpApaH (3) [1]: 63 RFU
RFU*2, LpApaH (3) [1]: 110 RFU*2 and 142 RFU*2
RFU*2 means, LpApaH (3) [1]: 126 RFU*2
RFU, LpApaH (3) [1]: 55 RFU and 71 RFU
[AMC] (nM), LpApaH (3) [1]: 53.71 nM and 69.34 nM
[AMC] (nM), LpApaH (3), means [1]: 61.52 nM
RFU means, KpHdaH (1b) ([2]; means of two measurements): -28 RFU
RFU*2 means, KpHdaH (1b) ([2]; means of two measurements): -56 RFU*2
[AMC] (nM), KpHdaH (1b), means [2, 12]: -27.34 nM
[AMC] (nM), KpHdaH (1b) [2, 13]: -12.70 nM
[AMC] (nM), KpHdaH (1b) [2, 14]: -41.99 nM
RFU means, controls [3]: 8340.5 RFU
RFU*2, controls [3]: 13158 RFU*2 and 20204 RFU*2
RFU*2 means, controls [3]: 16681 RFU*2
RFU, controls [3]: 6579 RFU and 10102 RFU
[AMC] (nM), controls, means [4]: 8145.02 nM
RFU means, LcApaH (3) [5]: 186 RFU
RFU*2 means, LcApaH (3) [5]: 372 RFU*2
[AMC] (nM), LcApaH (3), means [5]: 181.64 nM
RFU means, VcHdaH (5b) ([6]; means of two measurements): 71 RFU
RFU*2 means, VcHdaH (5b) ([6]; means of two measurements): 142 RFU*2
[AMC] (nM), VcHdaH (5b), means [6, 12]: 69.34 nM
RFU*2, VcHdaH (5b) [6, 15]: 138 RFU*2 and 146 RFU*2
RFU, VcHdaH (5b) [6, 15]: 69 RFU and 73 RFU
RFU means, BsAcuC (2c) ([7]; means of two measurements): 2011.5 RFU
RFU*2 means, BsAcuC (2c) ([7]; means of two measurements): 4023 RFU*2
[AMC] (nM), BsAcuC (2c), means [7, 12]: 1964.36 nM
RFU*2, BsAcuC (2c) [7, 15]: 4802 RFU*2 and 3244 RFU*2
RFU means, PsApaH (4) ([8]; means of two measurements): 80.5 RFU
RFU*2 means, PsApaH (4) ([8]; means of two measurements): 161 RFU*2
[AMC] (nM), PsApaH (4), means [8, 12]: 78.61 nM
[AMC] (nM), PsApaH (4) [8, 13]: 85.94 nM
[AMC] (nM), PsApaH (4) [8, 14]: 71.29 nM
RFU*2, PsApaH (4) [8, 15]: 146 RFU*2 and 176 RFU*2
RFU, PsApaH (4) [8, 15]: 73 RFU and 88 RFU
RFU means, VsHdaH (1b) ([9]; means of two measurements): 110.5 RFU
RFU*2 means, VsHdaH (1b) ([9]; means of two measurements): 221 RFU*2
[AMC] (nM), VsHdaH (1b), means [9, 12]: 107.91 nM
[AMC] (nM), VsHdaH (1b) [9, 13]: 121.09 nM
[AMC] (nM), VsHdaH (1b) [9, 14]: 94.73 nM
RFU*2, VsHdaH (1b) [9, 15]: 248 RFU*2 and 194 RFU*2
RFU, VsHdaH (1b) [9, 15]: 124 RFU and 97 RFU
RFU means, RwDmhA (1b) ([10]; means of two measurements): 64 RFU
RFU*2 means, RwDmhA (1b) ([10]; means of two measurements): 128 RFU*2
[AMC] (nM), RwDmhA (1b), means [10, 12]: 62.50 nM
[AMC] (nM), RwDmhA (1b) [10, 13]: 51.76 nM
[AMC] (nM), RwDmhA (1b) [10, 14]: 73.24 nM
RFU*2, RwDmhA (1b) [10, 15]: 106 RFU*2 and 150 RFU*2
RFU, RwDmhA (1b) [10, 15]: 53 RFU and 75 RFU
RFU means, RsPrpH (1b) ([11]; means of two measurements): 38 RFU
RFU*2 means, RsPrpH (1b) ([11]; means of two measurements): 76 RFU*2
[AMC] (nM), RsPrpH (1b), means [11, 12]: 37.11 nM
[AMC] (nM), RsPrpH (1b) [11, 13]: 3.91 nM
[AMC] (nM), RsPrpH (1b) [11, 14]: 70.31 nM
